The supplement of paper PMC10126150
± gives the standard deviation of the averaged measurements.

Tested on: ATP
Test: switch fluorescence ratio, 500 uM ATP over buffer (Cy3 cluster intensity, sum of 5 cycles each) (fold (ratio)); higher = stronger signal-on switching upon ATP binding; sequences stand for … in TCGTCGGCAGCGTCAGATGTGTATAAGAGACAGTTTTTTTTTTTTTTTTTTTTTTTTT…TC
Conditions: aptamer strand: ATP DNA aptamer (quencher-CACCTGGGGGAGTATTGCGGAGGAAGG + anchor), 100 nM annealed; ATP concentration: 500 uM
In short: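 Clusters carrying Cy3-labelled switching strands on a modified Illumina MiSeq flow-cell were annealed to 100 nM quencher-labelled ATP aptamer and imaged in selection buffer. They were imaged again after 15 min with 500 uM ATP at 22 °C, over five buffer/ATP cycles with NaOH stripping and re-annealing in between. For each cluster, the fluorescence ratio is the summed Cy3 intensity of the target cycles divided by that of the buffer cycles, averaged per switch-domain sequence. Clusters outside 100-1000 RFU were left out.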
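Also: ATP exposure 15 min at 22 °C before imaging.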

Sequence | switch fluorescence ratio
GTTGAGAGTC | 0.995 ± 0.038
CGGGATGTAG | 0.987 ± 0.026
CATATTTAGG | 0.949 ± 0.028
AATATTTGGT | 0.974 ± 0.019
ATTTTCTTAG | 0.999 ± 0.018
GAAATTTGGT | 0.99 ± 0.042
ATTAAAAGA | 1.01 ± 0.023
CTCTGAAATC | 2.997 ± 0.01
CAGGAAGGAT | 0.994 ± 0.016
TGGTGGTATG | 1.01 ± 0.071
TGTTTTAGGG | 0.993 ± 0.035
GTGTATTAGT | 0.9656 ± 0.003
TCGGGGGTGA | 1 ± 0.021
CTTGTATGAG | 0.989 ± 0.012
TTCACATAGC | 1.05 ± 0.1
CGGGGGTTAT | 1.03 ± 0.063
GGTTCTATAG | 0.993 ± 0.02
TGGGTGGGAC | 1.04 ± 0.036
TGTGGGGAGC | 0.995 ± 0.043
ATTTATATCT | 1 ± 0.015
ACCATTTTTG | 0.985 ± 0.057
CAAATTCGTC | 1.07 ± 0.015
GACTTTGGTG | 1.01 ± 0.026

Sequence | switch fluorescence ratio
AGGGGCGGTG | 0.994 ± 0.017
TGTTTTATGG | 0.9871 ± 0.008
GAGGTTGTAC | 1.02 ± 0.012
GGATCATGTG | 1.004 ± 0.0049
GATTGGGGTA | 0.978 ± 0.038
GTGGCAAGTT | 0.97 ± 0.017
AAATATTGCG | 0.997 ± 0.034
GGGGTGCTTT | 0.987 ± 0.017
AGTCGATGTC | 0.9763 ± 0.0039
AAATGGAGAC | 1.01 ± 0.034
AACTTAACGA | 1.0744 ± 0.00011
CAAAGGGGTG | 1.03 ± 0.044
AGATGGGGCC | 1 ± 0.027
TATTTTGTCT | 1.1 ± 0.13
GATATAGGCG | 1.05 ± 0.047
GAAAGTAACC | 1.05 ± 0.021
GCCTAAAGTT | 0.988 ± 0.015
TGTTATTTTT | 1 ± 0.041
TTTTACCCTT | 1.04 ± 0.04
GGTACAGTTT | 0.975 ± 0.019
GATTGGAACG | 0.976 ± 0.013
AAGGCGAGAC | 1.06 ± 0.023
CCAAGGAGTC | 0.992 ± 0.024

Sequence | switch fluorescence ratio
AGGACTTTGG | 1.05 ± 0.056
ACTTGTTTTT | 0.99 ± 0.033
GCGTAAACGG | 1.06 ± 0.022
CAATTTGCTG | 0.94 ± 0.026
TCACAAATAA | 0.993 ± 0.043
TATACTCAGG | 1.05 ± 0.029
TTAAGGGGCT | 1.01 ± 0.018
AAATCACGGA | 1.44 ± 0.23
CGGCCTACAG | 1.05 ± 0.028
AATGGGGTCT | 1.01 ± 0.047
TTTTCTGTTA | 1.032 ± 0.0085
GTGCCTGATG | 1.05 ± 0.046
TCGTTTGGGT | 0.978 ± 0.035
GAGGGTCAAA | 1.004 ± 0.01
TTTTTTGCT | 0.996 ± 0.039
AATAAACAAA | 0.978 ± 0.013
GAGAGATGTT | 0.999 ± 0.021
AAATAAGTC | 0.945 ± 0.024
TTTAAGGGTT | 1.02 ± 0.054
GGTGTTGGAG | 0.997 ± 0.019
TTGAAATTAC | 1.03 ± 0.065
TACCTTTTAA | 1.02 ± 0.026
GGGGCGTCTG | 1.04 ± 0.06

Sequence | switch fluorescence ratio
TGATCAAGTG | 0.99 ± 0.049
CATGCGGATG | 1.001 ± 0.0056
ACAACGGCCG | 1.05 ± 0.012
TTAAAACCTT | 1.56 ± 0.46
AAGGCGCGGG | 0.9891 ± 0.0081
TTGGCAGGGA | 0.998 ± 0.018
TGTTTGTCTA | 1.01 ± 0.011
ATAATTGGTG | 1.03 ± 0.018
GGTCTACATG | 0.985 ± 0.0076
CGTTACTTTT | 1.02 ± 0.053
TTGGTGCCGC | 0.975 ± 0.017
TCTGCTAGTT | 1.02 ± 0.021
GGGTTACAGC | 1 ± 0.026
CGGGGTCCTC | 1.01 ± 0.018
CCCCAGGGGT | 2.44 ± 2
CCGGCGGGGG | 1.4 ± 0.56
GAAAATTGCC | 0.978 ± 0.075
TGTGGAGAGC | 0.999 ± 0.038
AATAGGGGAA | 1.01 ± 0.042
TAAATCTAGA | 1.016 ± 0.01
TAAAACCAGT | 1.04 ± 0.035
TAGATGGGTC | 1.01 ± 0.013
GAGACAGGAT | 1.01 ± 0.04

Sequence | switch fluorescence ratio
ATAGGGAGAG | 0.987 ± 0.016
CAGAGGTGCG | 0.969 ± 0.056
ATGTAGGAAC | 0.999 ± 0.012
TCGTGTACGG | 1.04 ± 0.016
CGCGGTTGC | 1.24 ± 0.038
TTGAGTTAAA | 0.991 ± 0.037
AGGCCGATGG | 0.983 ± 0.021
AATGTCAGGA | 1.01 ± 0.044
AGTTAGTGAA | 0.99 ± 0.022
AGGTTATGCA | 1.01 ± 0.032
CCAGGTTTCA | 1.03 ± 0.046
ATTCCCGGGG | 1.06 ± 0.059
TTGTTCGGGA | 1.016 ± 0.0094
TTTTAATTCA | 1 ± 0.015
TCAGGGTGTG | 1.019 ± 0.0067
TTAGAGATTC | 0.961 ± 0.031
AAGTTTCGCG | 0.976 ± 0.027
CTAAGTCGAG | 0.966 ± 0.037
TTTTCCAAAT | 1.02 ± 0.024
TTAAATCGTG | 1.01 ± 0.054
ATGATGACGA | 1.06 ± 0.11
TGATAAAGTT | 1.03 ± 0.034
CTTACGGTCG | 1.02 ± 0.038

Sequence | switch fluorescence ratio
ATAAAGAGGC | 0.978 ± 0.066
TTAGAGGGGA | 0.985 ± 0.031
TTGTAAGATT | 0.987 ± 0.0048
ATGTCCGGGG | 0.985 ± 0.042
ACTAAGGCTC | 1.04 ± 0.051
TGGGGAAATT | 1.01 ± 0.022
ATGTTGTCGG | 0.987 ± 0.022
TTTAATTAAT | 0.983 ± 0.023
TTTTGATCTA | 0.97 ± 0.019
CGCTTTTCTT | 1.01 ± 0.0035
CGGCTGGCTT | 1 ± 0.033
GGGGTACAAT | 1.07 ± 0.041
GAGTATTTAA | 0.964 ± 0.058
CCTGTAAAGA | 1.02 ± 0.019
AACCAGTTAG | 1.01 ± 0.021
TGTGGTAGCG | 1.01 ± 0.018
TTAAGGCAA | 1.125 ± 0.0087
GGCGGGGGAG | 1.03 ± 0.021
TTACGAAAGA | 1.07 ± 0.032
AATCATCGTG | 0.9646 ± 0.0043
TTTAGAGGGG | 1.02 ± 0.024
AATATTGTCG | 0.994 ± 0.034
TGAATGCTGA | 0.961 ± 0.017

Sequence | switch fluorescence ratio
TAGCATGTAC | 5.22 ± 0.65
ACACGGGGGA | 1.01 ± 0.024
CAAGGTACGA | 1.02 ± 0.043
TATTTTCGGA | 0.97 ± 0.039
AGTTAAAGAG | 1.01 ± 0.021
ACTGTACGCA | 1.51 ± 0.086
TGCGTCGGCG | 1 ± 0.013
CCAGTGTGTG | 1.09 ± 0.062
GGTAGTATTT | 0.996 ± 0.028
GGGCCAGTGC | 1.03 ± 0.043
TCGGAGAATG | 1.003 ± 0.01
AGGGTCTTGA | 1.007 ± 0.0017
AAGATAGTGT | 0.9936 ± 0.0057
CGGTAGCTTG | 1 ± 0.019
GGCCGGTGAA | 0.9843 ± 0.0045
TTCTTTGGTT | 0.9889 ± 0.0055
CTTTTTTGCC | 1.02 ± 0.019
GCTAGATCAC | 1.02 ± 0.025
ATATGGTGTA | 0.959 ± 0.021
